Reference: patent US20240116985A1, “STAPLED PEPTIDES AND METHODS THEREOF” (priority 2020, published 2024)
Each block holds one binder with its values, some of them ahead of it. Starred links: 1 amine or outer side, 2 acyl side, 3 side chain; linkers in the order of their positions; H or OH if unused. Positions of bridges follow the written chain, without caps; N, C: chain ends. Non-standard residues stand in square brackets, D forms with d. Primed or numbered codes have the meaning given here. No end group written: not given here. *: point of attachment. PyrS2″ = (S)-3-amino-1-((pent-4-en-1-yloxy)carbonyl)pyrrolidine-3-carboxylic acid (stapling residue), C=CCCCOC(=O)N1CC[C@@](N[*:1])(C(=O)[*:2])C1; B5(4) = 2,2-bis(4-pentenyl)glycine = 2-amino-2-(pent-4-en-1-yl)hept-6-enoic acid (stitching residue), C=CCCCC(CCCC=C)(N[*:1])C(=O)[*:2]; B5(5) = 2,2-bis(4-pentenyl)glycine, 2-amino-2-(pent-4-en-1-yl)hept-6-enoic acid (stitching residue), C=CCCCC(CCCC=C)(N[*:1])C(=O)[*:2]; TfeGA = (S)-2-amino-3-((carboxymethyl)(2,2,2-trifluoroethyl)amino)propanoic acid, O=C([C@H](CN(CC(=O)[*:3])CC(F)(F)F)N[*:1])[*:2]; PyrS2 = (S)-3-amino-1-((pent-4-en-1-yloxy)carbonyl)pyrrolidine-3-carboxylic acid, C=CCCCOC(=O)N1CC[C@@](N[*:1])(C(=O)[*:2])C1; (3C)TriAzLys = (S)-2-amino-6-(4-propyl-1H-1,2,3-triazol-1-yl)hexanoic acid, CCCc1cn(CCCC[C@H](N[*:1])C(=O)[*:2])nn1; B5(13) = 2-amino-2-(pent-4-en-1-yl)hept-6-enoic acid (two alkene chains), C=CCCCC(CCCC=C)(N[*:1])C(=O)[*:2]; 2COOHF = (S)-2-(2-amino-2-carboxyethyl)benzoic acid, O=C([C@H](Cc1ccccc1C(=O)[*:3])N[*:1])[*:2]; B5(3) = 2,2-bis(4-pentenyl)glycine (stitching residue), C=CCCCC(CCCC=C)(N[*:1])C(=O)[*:2]; Phe(3-COOH) = N[C@@H](Cc1cccc(C(=O)O)c1)C(=O)O; Phe(2-CF3) = N[C@@H](Cc1ccccc1C(F)(F)F)C(=O)O; Phe(2-Cl) = N[C@@H](Cc1ccccc1Cl)C(=O)O; Phe(2-OMe) = COc1ccccc1C[C@H](N)C(=O)O; 2Nal = N[C@@H](Cc1ccc2ccccc2c1)C(=O)O; Bta = N[C@@H](Cc1csc2ccccc12)C(=O)O; αAllylPro = C=CC[C@@]1(C(=O)O)CCCN1; tBuAla = CC(C)(C)C[C@H](N)C(=O)O; 2Thi = N[C@@H](Cc1cccs1)C(=O)O; 3Thi = N[C@@H](Cc1ccsc1)C(=O)O; S8 = C=CCCCCCC[C@](C)(N)C(=O)O; Thr(ol) = C[C@@H](O)[C@H](N)CO; Alaol = C[C@@H](CO)N*

Tests used:
[1] = target: B-cat-Halo (beta-catenin HaloTag NanoBRET construct expressed in HEK293 cells) (UniProt P35222); assay: NanoBRET Abs IC50 in HEK293 cells; Bcat-Halo, TCF4-Luc as competitor
Chain of B-cat-Halo (beta-catenin HaloTag NanoBRET construct expressed in HEK293 cells) (P35222 whole entry): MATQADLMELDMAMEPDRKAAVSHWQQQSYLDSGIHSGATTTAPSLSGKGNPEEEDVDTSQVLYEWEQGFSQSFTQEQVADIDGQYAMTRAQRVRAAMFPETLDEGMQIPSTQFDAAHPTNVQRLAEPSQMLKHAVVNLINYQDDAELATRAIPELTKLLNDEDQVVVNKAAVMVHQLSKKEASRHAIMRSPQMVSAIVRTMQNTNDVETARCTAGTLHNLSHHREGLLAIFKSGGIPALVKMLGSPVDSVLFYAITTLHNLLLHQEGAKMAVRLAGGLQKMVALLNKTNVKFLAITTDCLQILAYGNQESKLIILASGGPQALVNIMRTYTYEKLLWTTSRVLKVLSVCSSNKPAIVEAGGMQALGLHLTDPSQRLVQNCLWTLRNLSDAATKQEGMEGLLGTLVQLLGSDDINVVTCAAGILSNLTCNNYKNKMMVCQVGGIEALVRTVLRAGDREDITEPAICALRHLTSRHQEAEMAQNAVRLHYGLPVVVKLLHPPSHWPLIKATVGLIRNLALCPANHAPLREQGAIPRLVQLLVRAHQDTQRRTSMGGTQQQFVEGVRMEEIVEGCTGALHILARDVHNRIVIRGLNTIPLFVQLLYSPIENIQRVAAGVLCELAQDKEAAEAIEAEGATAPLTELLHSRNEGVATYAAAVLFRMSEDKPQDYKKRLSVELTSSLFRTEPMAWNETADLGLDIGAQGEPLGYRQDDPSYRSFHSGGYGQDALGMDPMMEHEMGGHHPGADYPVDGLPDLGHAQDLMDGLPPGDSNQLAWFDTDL

[2] = target: full-length beta-Catenin (Uniprot ID P35222) (Homo sapiens (Human)) (UniProt P35222); assay: fluorescence polarization competition; full-length beta-catenin, 5FAM-TCF4(10-53) probe as competitor
Target sequence in this assay (P35222 2-781 limits assumed): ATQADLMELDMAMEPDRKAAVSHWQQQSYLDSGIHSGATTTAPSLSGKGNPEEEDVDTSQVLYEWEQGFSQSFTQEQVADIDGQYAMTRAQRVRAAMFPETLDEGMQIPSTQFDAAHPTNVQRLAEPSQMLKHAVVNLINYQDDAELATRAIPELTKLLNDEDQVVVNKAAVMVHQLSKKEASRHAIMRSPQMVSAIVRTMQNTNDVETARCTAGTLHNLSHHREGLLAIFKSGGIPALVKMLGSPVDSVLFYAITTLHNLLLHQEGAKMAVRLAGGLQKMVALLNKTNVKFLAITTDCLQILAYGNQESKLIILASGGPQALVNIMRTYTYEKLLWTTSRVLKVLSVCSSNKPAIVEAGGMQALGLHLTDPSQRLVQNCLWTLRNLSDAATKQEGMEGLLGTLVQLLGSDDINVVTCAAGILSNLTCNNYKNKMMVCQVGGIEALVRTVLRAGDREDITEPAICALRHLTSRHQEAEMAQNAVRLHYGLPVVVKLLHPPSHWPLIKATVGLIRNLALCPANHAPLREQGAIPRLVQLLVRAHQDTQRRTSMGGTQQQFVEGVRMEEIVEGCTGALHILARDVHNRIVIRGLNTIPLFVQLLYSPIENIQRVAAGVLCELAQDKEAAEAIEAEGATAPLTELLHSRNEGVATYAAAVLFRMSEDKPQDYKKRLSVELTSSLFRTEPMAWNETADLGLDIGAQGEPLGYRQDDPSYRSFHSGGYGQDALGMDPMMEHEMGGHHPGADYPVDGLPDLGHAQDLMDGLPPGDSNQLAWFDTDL

[3] = target: full-length beta-Catenin (Uniprot ID P35222) (Homo sapiens (Human)) (UniProt P35222); assay: FP competition: displacement of 5FAM-TCF4(10-53) from full-length beta-catenin
Target sequence in this assay (P35222 whole entry, one chain of several): as the sequence (P35222 whole entry) above

[4] = target: Bcat-Halo (UniProt P35222); assay: NanoBRET Abs IC50, HEK293 cells; B-cat-Halo/TCF4-Luc engagement, competitor TCF4-Luc
Chain of Bcat-Halo (P35222 whole entry): as above

[5] = target: full-length beta-Catenin (Uniprot ID P35222) (Homo sapiens (Human)) (UniProt P35222); assay: FP competition; full-length beta-catenin, competitor 5FAM-TCF4(10-53)
Target sequence in this assay (P35222 whole entry, one chain of several): as the sequence (P35222 whole entry) above

[6] = target: full-length beta-Catenin (Uniprot ID P35222) (Homo sapiens (Human)) (UniProt P35222); assay: fluorescence polarization competition; full-length beta-catenin with 5FAM-TCF4(10-53) probe as competitor
Target sequence in this assay (P35222 2-781 limits assumed): as the sequence (P35222 2-781 limits assumed) above

[7] = target: Bcat-Halo (UniProt P35222); assay: NanoBRET Abs IC50, HEK293 cells, B-cat-Halo / TCF4-Luc engagement
[8] = target: full-length beta-Catenin (Uniprot ID P35222) (Homo sapiens (Human)) (UniProt P35222); assay: fluorescence polarization competition against 5FAM-TCF4 10-53 on full-length beta-catenin
Target sequence in this assay (P35222 whole entry, one chain of several): as the sequence (P35222 whole entry) above

[9] = target: full-length beta-Catenin (Uniprot ID P35222) (Homo sapiens (Human)) (UniProt P35222); assay: FP competition, full-length beta-catenin, competitor probe 5FAM-TCF4 10-53
Target sequence in this assay (P35222 2-781 limits assumed): as the sequence (P35222 2-781 limits assumed) above

[10] = target: Bcat-Halo (UniProt P35222); assay: NanoBRET absolute IC50, HEK293 cells, Bcat-Halo/TCF4-Luc engagement
[11] = target: full-length beta-Catenin (Uniprot ID P35222) (Homo sapiens (Human)) (UniProt P35222); assay: fluorescence polarization competition; full-length beta-catenin, 5FAM-TCF4(10-53) probe
Target sequence in this assay (P35222 whole entry, one chain of several): as the sequence (P35222 whole entry) above

[12] = target: B-cat-Halo (NanoBRET construct) (UniProt P35222); assay: NanoBRET Abs IC50; Bcat-Halo/TCF4-Luc in HEK293 cells, competitor TCF4-Luc
Chain of B-cat-Halo (NanoBRET construct) (P35222 whole entry): as above

[13] = target: full-length beta-Catenin (Uniprot ID P35222) (Homo sapiens (Human)) (UniProt P35222); assay: AlphaScreen competition vs biotin-TCF4(10-53) on full-length beta-catenin
Target sequence in this assay (P35222 whole entry, one chain of several): as the sequence (P35222 whole entry) above

[14] = target: full-length beta-Catenin (Uniprot ID P35222) (Homo sapiens (Human)) (UniProt P35222); assay: fluorescence polarization competition: peptide titrated against 10 nM full-length beta-catenin + 10 nM 5FAM-TCF4(10-53) probe
Target sequence in this assay (P35222 2-781 limits assumed): as the sequence (P35222 2-781 limits assumed) above

[15] = target: full-length beta-Catenin (Uniprot ID P35222) (Homo sapiens (Human)) (UniProt P35222); assay: fluorescence polarization competition; peptide displaces 5FAM-TCF4(10-53) from full-length beta-catenin
Target sequence in this assay (P35222 2-781 limits assumed): as above

[16] = target: B-cat-Halo (beta-catenin HaloTag NanoBRET construct expressed in HEK293 cells) (UniProt P35222); assay: NanoBRET in HEK293 cells, Bcat-Halo + TCF4-Luc (competitor partner TCF4)
[17] = target: B-cat-Halo (beta-catenin HaloTag NanoBRET construct expressed in HEK293 cells) (UniProt P35222); assay: NanoBRET in HEK293 cells, Bcat-Halo + TCF4-Luc, peptide at 10 uM
[18] = target: full-length beta-Catenin (Uniprot ID P35222) (Homo sapiens (Human)) (UniProt P35222); assay: fluorescence polarization competition; 10 nM full-length beta-catenin with 10 nM 5FAM-TCF4(10-53) probe as competitor
Target sequence in this assay (P35222 2-781 limits assumed): as above

Binder: Ac-[αAllylPro]D[tBuAla][B5(5)]DDAAFT[PyrS2″][3Thi][2Nal]Q-NH2 (staple 1-4, 4-11) [I-1233]
IC50 [1]: 54500 nM
IC50 [2]: 24 nM
EC50 [3]: 24 nM

Binder: Ac-[αAllylPro]DA[B5(4)]D[2Nal]AAFQ[S8]F[Bta]A-NH2 (staple 1-4, 4-11) [I-296]
EC50 [13]: 1910 nM

Binder: Ac-[αAllylPro]D[tBuAla][B5(5)]DDAAFN[PyrS2][Phe(2-Cl)][Bta]H-NH2 (staple 1-4, 4-11) [I-784]
EC50 [14]: 6 nM
IC50 [15]: 6 nM
IC50 [16]: 12100 nM
NanoBRET % inh @ 10 uM [17]: 35.1%

Binder: Ac-[αAllylPro]D[tBuAla][B5(3)]DDAAFF[PyrS2″][3Thi][Bta]Q-NH2 (staple 1-4, 4-11) [I-807]
EC50 [14]: 5 nM
IC50 [18]: 5 nM
IC50 [16]: 5300 nM

Binder: Ac-[αAllylPro]D[tBuAla][B5(5)]DEAAFN[PyrS2][3Thi][Bta]-NH2 (staple 1-4, 4-11) [I-786]
EC50 [14]: 8 nM
IC50 [15]: 8 nM
IC50 [16]: 17100 nM

Binder: Ac-[αAllylPro]DA[B5(4)]D[2Nal]AAFS[S8]F[Bta]Q-NH2 (staple 1-4, 4-11) [I-298]
EC50 [13]: 3860 nM

Binder: Ac-[αAllylPro]D[tBuAla][B5(13)]DDAAFN[PyrS2][Phe(2-OMe)][Bta]H-NH2 (staple 1-4, 4-11) [I-781]
EC50 [14]: 5 nM
IC50 [15]: 5 nM
IC50 [16]: 11600 nM
NanoBRET % inh @ 10 uM [17]: 24%

The next lines start with the values.

IC50 [4]: > 20000 nM
EC50 [5]: 23 nM
IC50 [6]: 23 nM
Binder: [αAllylPro]D[tBuAla][B5(4)]DDAAFS[PyrS2″]F[Bta]S-NH2 (staple 1-4, 4-11; not fully specified; printed as PL3-Asp-Npg-B5-Asp-Asp-Ala-Ala-Phe-Ser-PyrS2-Phe-BztA-Ser-NH2) [I-1356]

IC50 [7]: 5000 nM
IC50 [8]: 246 nM
Binder: Ac-[αAllylPro]D[tBuAla][B5(5)]D[Phe(3-COOH)]AAFL[PyrS2″][Phe(2-CF3)][Bta]QLV-NH2 (staple 1-4, 4-11) [I-2379]

IC50 [4]: 4700 nM
EC50 [5]: 15 nM
IC50 [9]: 15 nM
IC50 [10]: 4700 nM
Binder: [αAllylPro]D[tBuAla][B5(4)]DDAAFF[PyrS2″][2Thi][Bta]Q-NH2 (staple 1-4, 4-11) [I-1345]

IC50 [11]: 29 nM
IC50 [12]: 16400 nM
Binder: Ac-[αAllylPro]D[tBuAla][B5(5)]D[2COOHF]AAFF[PyrS2″][3Thi][Bta][Thr(ol)] (staple 1-4, 4-11; also: staple isomer, earlier-eluting HPLC peak) [I-1668]

IC50 [1]: > 20000 nM
IC50 [2]: 30 nM
EC50 [3]: 30 nM
Binder: Ac-[αAllylPro]D[tBuAla][B5(4)]D[TfeGA]AAFT[PyrS2″][Phe(2-Cl)][Bta]-Alaol (staple 1-4, 4-11) [I-1242]

IC50 [7]: 13500 nM
IC50 [8]: 5 nM
Binder: Ac-[αAllylPro]D[tBuAla][B5(4)]DDAAFL[PyrS2″][3Thi][Bta][(3C)TriAzLys]-NH2 (staple 1-4, 4-11) [I-2375]
